Laboratory results from publication PMC12796321, “The genetic and biochemical basis of human leading strand synthesis”.

Columns and labels:
[1] = biological target: T1, POLE1 (Pol epsilon catalytic subunit);POLE2;POLE3;POLE4 DNA binding mutant (DB/DBM) (human;human;human;human, UniProt Q07864;P56282;Q9NRF9;Q9NR33 1-2286;1-527;1-147;1-117, |||A44L;R45D;K47E;K51E); experiment: EMSA; binding abolished; EMSA: 30 nM DNA, 30-120 nM protein; protein dilution buffer 25 mM Hepes pH 7.5, 100 mM NaCl, 10% glycerol, 0.5 mM EDTA, 1 mM DTT, 0.01% NP-40; 5x reaction buffer 175 mM Hepes pH 7.4, 100 mM NaCl, 10 mM DTT, 500 ug/ml BSA; on ice 20 min (legends: 15 min); native TBE gel at 4 C; settings: protein: recombinant;recombinant;recombinant;recombinant; tags: N-terminal streptavidin tag;;;; copies: 1;1;1;1; label: 5' 6FAM on strand 1; blunt
[2] = biological target: POLE1 ISC mutant;POLE2;POLE3;POLE4 (human;human;human;human, UniProt Q07864;P56282;Q9NRF9;Q9NR33 1-2286;1-527;1-147;1-117, C651S;C654S|||); experiment: EMSA; EMSA: 30 nM DNA, 30-120 nM protein; protein dilution buffer 25 mM Hepes pH 7.5, 100 mM NaCl, 10% glycerol, 0.5 mM EDTA, 1 mM DTT, 0.01% NP-40; 5x reaction buffer 175 mM Hepes pH 7.4, 100 mM NaCl, 10 mM DTT, 500 ug/ml BSA; on ice 20 min (legends: 15 min); native TBE gel at 4 C; settings: protein: recombinant;recombinant;recombinant;recombinant, tags: N-terminal streptavidin tag;;;, copies: 1;1;1;1
[3] = biological target: POLE1 (Pol epsilon catalytic subunit);POLE2 (human;human, UniProt Q07864;P56282 1-2286;1-527, |); experiment: EMSA; without POLE3-POLE4; EMSA: 30 nM DNA, 30-120 nM protein; protein dilution buffer 25 mM Hepes pH 7.5, 100 mM NaCl, 10% glycerol, 0.5 mM EDTA, 1 mM DTT, 0.01% NP-40; 5x reaction buffer 175 mM Hepes pH 7.4, 100 mM NaCl, 10 mM DTT, 500 ug/ml BSA; on ice 20 min (legends: 15 min); native TBE gel at 4 C; settings: protein: recombinant;recombinant; tags: N-terminal streptavidin tag;; copies: 1;1; label: 5' 6FAM
[4] = biological target: T1, POLE1 (Pol epsilon catalytic …); experiment: EMSA; EMSA: 30 nM DNA, 30-120 nM protein; protein dilution buffer 25 mM Hepes pH 7.5, 100 mM NaCl, 10% glycerol, 0.5 mM EDTA, 1 mM DTT, 0.01% NP-40; 5x reaction buffer 175 mM Hepes pH 7.4, 100 mM NaCl, 10 mM DTT, 500 ug/ml BSA; on ice 20 min (legends: 15 min); native TBE gel at 4 C; settings: protein: recombinant;recombinant;recombinant;recombinant; tags: N-terminal streptavidin tag;;;; copies: 1;1;1;1; label: 5' 6FAM

Chain of POLE1 ISC mutant;POLE2;POLE3;POLE4 (Q07864 whole entry C651S/C654S, chain 1 of 4): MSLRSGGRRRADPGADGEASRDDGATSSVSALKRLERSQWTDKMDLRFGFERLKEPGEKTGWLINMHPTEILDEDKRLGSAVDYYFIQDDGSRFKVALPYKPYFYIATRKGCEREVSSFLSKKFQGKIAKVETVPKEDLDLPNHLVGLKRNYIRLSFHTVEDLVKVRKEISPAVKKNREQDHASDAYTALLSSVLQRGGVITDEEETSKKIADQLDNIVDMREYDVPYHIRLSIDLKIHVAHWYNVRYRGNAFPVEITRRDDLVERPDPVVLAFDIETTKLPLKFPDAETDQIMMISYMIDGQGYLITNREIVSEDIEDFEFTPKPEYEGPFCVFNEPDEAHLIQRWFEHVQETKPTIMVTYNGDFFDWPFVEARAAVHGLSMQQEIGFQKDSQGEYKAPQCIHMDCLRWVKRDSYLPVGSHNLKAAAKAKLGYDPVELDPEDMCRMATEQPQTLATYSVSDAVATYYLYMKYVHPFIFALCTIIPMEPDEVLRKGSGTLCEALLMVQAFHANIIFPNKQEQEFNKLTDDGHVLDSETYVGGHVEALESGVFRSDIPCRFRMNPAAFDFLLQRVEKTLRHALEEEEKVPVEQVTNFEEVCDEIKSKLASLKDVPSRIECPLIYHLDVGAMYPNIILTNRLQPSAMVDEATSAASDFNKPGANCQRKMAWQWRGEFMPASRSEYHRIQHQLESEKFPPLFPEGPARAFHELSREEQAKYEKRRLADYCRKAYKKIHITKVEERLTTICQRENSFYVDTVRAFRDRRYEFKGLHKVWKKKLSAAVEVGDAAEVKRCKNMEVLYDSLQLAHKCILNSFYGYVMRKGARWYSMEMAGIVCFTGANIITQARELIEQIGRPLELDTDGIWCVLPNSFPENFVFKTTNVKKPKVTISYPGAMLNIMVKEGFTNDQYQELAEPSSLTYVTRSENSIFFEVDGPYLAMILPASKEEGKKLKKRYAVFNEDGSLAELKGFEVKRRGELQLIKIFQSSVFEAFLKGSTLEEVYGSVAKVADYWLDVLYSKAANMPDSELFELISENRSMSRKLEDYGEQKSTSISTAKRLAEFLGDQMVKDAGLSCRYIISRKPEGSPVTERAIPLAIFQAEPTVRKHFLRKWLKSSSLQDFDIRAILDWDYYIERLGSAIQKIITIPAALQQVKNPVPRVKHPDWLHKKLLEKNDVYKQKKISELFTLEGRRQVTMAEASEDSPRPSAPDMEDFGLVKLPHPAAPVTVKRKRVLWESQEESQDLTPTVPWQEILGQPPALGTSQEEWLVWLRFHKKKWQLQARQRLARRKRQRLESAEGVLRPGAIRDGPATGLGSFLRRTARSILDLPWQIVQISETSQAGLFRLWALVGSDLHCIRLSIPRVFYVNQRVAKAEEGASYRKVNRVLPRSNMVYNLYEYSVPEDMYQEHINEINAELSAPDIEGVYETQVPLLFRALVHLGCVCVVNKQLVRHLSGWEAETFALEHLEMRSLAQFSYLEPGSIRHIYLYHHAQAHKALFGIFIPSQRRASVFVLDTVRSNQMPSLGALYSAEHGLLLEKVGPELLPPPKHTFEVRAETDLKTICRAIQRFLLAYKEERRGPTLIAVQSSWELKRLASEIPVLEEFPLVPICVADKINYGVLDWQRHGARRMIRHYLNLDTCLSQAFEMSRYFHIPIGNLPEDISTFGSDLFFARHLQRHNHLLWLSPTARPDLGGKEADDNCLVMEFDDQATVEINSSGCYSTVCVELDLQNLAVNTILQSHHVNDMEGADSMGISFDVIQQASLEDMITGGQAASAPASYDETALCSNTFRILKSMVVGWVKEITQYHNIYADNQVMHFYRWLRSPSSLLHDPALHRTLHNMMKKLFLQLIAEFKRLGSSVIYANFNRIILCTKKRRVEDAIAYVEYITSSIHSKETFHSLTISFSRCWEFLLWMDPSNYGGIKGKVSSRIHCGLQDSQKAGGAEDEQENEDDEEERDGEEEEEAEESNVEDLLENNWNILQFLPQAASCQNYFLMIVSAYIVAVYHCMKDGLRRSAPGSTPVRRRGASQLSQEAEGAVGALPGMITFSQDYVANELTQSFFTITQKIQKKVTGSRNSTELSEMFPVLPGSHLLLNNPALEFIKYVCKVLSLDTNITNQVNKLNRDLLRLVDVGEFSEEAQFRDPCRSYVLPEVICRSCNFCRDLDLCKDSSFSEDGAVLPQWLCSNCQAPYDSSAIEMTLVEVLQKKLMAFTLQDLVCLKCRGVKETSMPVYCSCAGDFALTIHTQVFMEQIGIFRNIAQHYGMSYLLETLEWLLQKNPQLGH
Chain of POLE1 ISC mutant;POLE2;POLE3;POLE4 (P56282 whole entry, stated change not applied, chain 2 of 4): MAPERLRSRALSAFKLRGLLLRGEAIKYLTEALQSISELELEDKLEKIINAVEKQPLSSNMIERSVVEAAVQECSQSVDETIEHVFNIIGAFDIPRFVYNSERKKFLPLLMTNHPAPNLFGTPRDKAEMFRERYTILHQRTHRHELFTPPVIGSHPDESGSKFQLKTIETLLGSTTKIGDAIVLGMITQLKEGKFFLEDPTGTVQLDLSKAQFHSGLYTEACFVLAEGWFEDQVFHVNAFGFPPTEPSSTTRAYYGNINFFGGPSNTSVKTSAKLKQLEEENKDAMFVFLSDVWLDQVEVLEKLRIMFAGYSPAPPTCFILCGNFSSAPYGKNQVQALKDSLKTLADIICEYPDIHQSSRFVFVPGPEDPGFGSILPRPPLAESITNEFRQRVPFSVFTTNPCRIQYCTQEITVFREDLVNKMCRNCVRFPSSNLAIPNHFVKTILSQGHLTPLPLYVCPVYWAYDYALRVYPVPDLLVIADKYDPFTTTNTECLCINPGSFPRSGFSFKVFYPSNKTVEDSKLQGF
Chain of POLE1 ISC mutant;POLE2;POLE3;POLE4 (Q9NRF9 whole entry, stated change not applied, chain 3 of 4): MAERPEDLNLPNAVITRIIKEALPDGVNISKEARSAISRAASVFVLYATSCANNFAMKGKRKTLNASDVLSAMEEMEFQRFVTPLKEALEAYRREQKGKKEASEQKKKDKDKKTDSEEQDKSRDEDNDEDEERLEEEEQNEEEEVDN
Chain of POLE1 ISC mutant;POLE2;POLE3;POLE4 (Q9NR33 whole entry, stated change not applied, chain 4 of 4): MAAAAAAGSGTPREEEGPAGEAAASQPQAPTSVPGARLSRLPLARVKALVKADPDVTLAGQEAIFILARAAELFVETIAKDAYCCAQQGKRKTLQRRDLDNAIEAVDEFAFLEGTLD
T1 sequence (Q07864 whole entry, stated change not applied, chain 1 of 4): as the sequence (Q07864 whole entry C651S/C654S, chain 1 of 4) above, with S651C, S654C counted along it
T1 sequence (P56282 whole entry, stated change not applied, chain 2 of 4): as the sequence (P56282 whole entry, stated change not applied, chain 2 of 4) above
T1 sequence (Q9NRF9 whole entry, stated change not applied, chain 3 of 4): as the sequence (Q9NRF9 whole entry, stated change not applied, chain 3 of 4) above
T1 sequence (Q9NR33 whole entry A44L/R45D/K47E/K51E, chain 4 of 4): as the sequence (Q9NR33 whole entry, stated change not applied, chain 4 of 4) above, with A44L, R45D, K47E, K51E counted along it
Chain of POLE1 (Pol epsilon catalytic subunit);POLE2 (Q07864 whole entry, chain 1 of 2): as the sequence (Q07864 whole entry C651S/C654S, chain 1 of 4) above, with S651C, S654C counted along it
Chain of POLE1 (Pol epsilon catalytic subunit);POLE2 (P56282 whole entry, chain 2 of 2): as the sequence (P56282 whole entry, stated change not applied, chain 2 of 4) above

B1: EMSA dsDNA 49 bp (dsDNA)
DNA 1: AGCTACCATGCCTGCACGAATTAAGCAATTCGTAATCATGGTCATAGCT
DNA 2: AGCTATGACCATGATTACGAATTGCTTAATTCGTGCAGGCATGGTAGCT
binding result [1]: no binding | binding result ([2]; label: 5' 6FAM on strand 1, blunt): binds

B2: EMSA ssDNA 49-mer (ssDNA)
DNA: B1 DNA 1
binding result [3]: binds | binding result ([2]; label: 5' 6FAM): binds | binding result [4]: binds

B3: EMSA leading strand fork (dsDNA)
DNA 1: B1 DNA 1
DNA 2: CTACAGTTCGTCAGGATTCC
DNA 3: AGCTATGACCATGATTACGAATTGCTTGGAATCCTGACGAACTGTAG
binding result ([2]; label: 5' 6FAM on strand 1, fork 1:3 (27 bp) 2:3 (20 bp), 22 nt 5' flap on strand 1): binds
